Among the data in patent US20260209350A1 (Alector, published 2026) are Kd, binding result and MFI values, retold here.

In assay [1] the target is T1, human TREM2 Fc fusion protein (human, UniProt Q9NZC2 19-174).
T1 construct: also called hTREM2-Fc; not shown: Fc part not specified
T1 sequence: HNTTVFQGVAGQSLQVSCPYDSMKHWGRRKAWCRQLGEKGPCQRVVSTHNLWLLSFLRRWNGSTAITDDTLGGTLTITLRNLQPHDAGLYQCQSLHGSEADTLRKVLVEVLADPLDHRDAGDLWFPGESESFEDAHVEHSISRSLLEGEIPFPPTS
Description: ForteBio or MSD-SET, avid.

Assay [2] deals with T2, mouse TREM2 Fc fusion protein (mouse, UniProt Q99NH8 19-171).
T2 construct: also called mTREM2-Fc; not shown: Fc part not specified
T2 sequence (looked up): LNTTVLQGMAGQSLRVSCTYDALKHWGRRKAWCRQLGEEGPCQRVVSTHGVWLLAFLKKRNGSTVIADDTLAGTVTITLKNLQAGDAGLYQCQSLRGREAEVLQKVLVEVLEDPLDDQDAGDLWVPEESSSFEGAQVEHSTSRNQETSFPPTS
The assay is described as follows: ForteBio or MSD-SET, avid.

Another assay addresses T3, mouse TREM2 on cells (mouse, UniProt Q99NH8 19-227).
T3 construct: whole, on cells; Used for the recombinant protein on BWZ/BW cells (with mouse DAP12) and for the native protein on mouse macrophages and dendritic cells; the cell type stands under assay; also called mTREM2; mTrem2
T3 sequence (looked up): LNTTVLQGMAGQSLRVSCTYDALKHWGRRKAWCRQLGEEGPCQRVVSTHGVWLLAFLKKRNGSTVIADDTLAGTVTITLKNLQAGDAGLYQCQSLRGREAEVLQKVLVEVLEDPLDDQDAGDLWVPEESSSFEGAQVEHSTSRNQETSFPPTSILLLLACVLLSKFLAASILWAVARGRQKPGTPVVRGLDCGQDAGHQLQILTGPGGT
Description: FACS, mTrem2 cells.

B1: Ab76 (antibody, human IgG1, V domains shown)
VH: EVQLVESGGGLVKPGGSLRLSCAASGFTFSSYSMNWVRQAPGKGLEWVSSISSSSSYIYYADSVKGRFTISRDNAKNSLYLQMNSLRAEDTAVYYCARGGGRRGDNNWFDPWGQGTLVTVSS
VL: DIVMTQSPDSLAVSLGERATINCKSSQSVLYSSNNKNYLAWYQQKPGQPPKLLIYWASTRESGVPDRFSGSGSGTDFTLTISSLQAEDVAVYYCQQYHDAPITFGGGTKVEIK
notes: human IgG1
B1: in assay [1], the Kd (as a rule, a measure of binding affinity in units of concentration) was determined as 4.84 nM.

B2: Ab77 (antibody, human IgG1, V domains shown)
VH: QVQLVESGGGVVQPGRSLRLSCAASGFTFSSYGMHWVRQAPGKGLEWVAVISYDGSNKYYADSVKGRFTISRDNSKNTLYLQMNSLRAEDTAVYYCARGPPHEMDYWGQGTLVTVSS
VL: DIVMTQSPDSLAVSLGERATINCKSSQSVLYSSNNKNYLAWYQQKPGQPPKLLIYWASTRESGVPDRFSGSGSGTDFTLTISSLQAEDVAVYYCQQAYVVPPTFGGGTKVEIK
notes: human IgG1
On to B2, for which the binding result in assay [2] was “no binding”. Moreover, in the assay with mouse TREM2 on cells, the MFI came to 1650 MFI.

B3: Ab30 (antibody, human IgG1, V domains shown)
VH: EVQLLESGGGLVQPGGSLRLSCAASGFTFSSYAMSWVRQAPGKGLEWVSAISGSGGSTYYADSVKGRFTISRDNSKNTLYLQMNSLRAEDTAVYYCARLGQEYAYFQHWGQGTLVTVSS
VL: DIQMTQSPSSLSASVGDRVTITCRASQSISSYLNWYQQKPGKAPKLLIYGASSLQSGVPSRFSGSGSGTDFTLTISSLQPEDFATYYCQQVYITPITFGGGTKVEIK
notes: human IgG1
Turning to B3, the binding result in assay [2] is “no binding”. In addition, the Kd in assay [1] came out at 1.32 nM.

B4: Ab82 (antibody, human IgG1, V domains shown)
VH: QVQLQESGPGLVKPSQTLSLTCTVSGGSISSGGYYWSWIRQHPGKGLEWIGYIYYSGSTVYNPSLKSRVTISVDTSKNQFSLKLSSVTAADTAVYYCARVSSSWYKAWGQGTMVTVSS
VL: DIQMTQSPSSVSASVGDRVTITCRASQGISSWLAWYQQKPGKAPKLLIYAASSLQSGVPSRFSGSGSGTDFTLTISSLQPEDFATYYCQQASTFPITFGGGTKVEIK
notes: human IgG1
As to B4, the Kd in assay [2] worked out at 5.82 nM; in assay [1] it was 11 nM. Also, in the assay with mouse TREM2 on cells, the MFI was determined as 712 MFI.

B5: Ab83 (antibody, human IgG1, V domains shown)
VH: QVQLQQWGAGLLKPSETLSLTCAVYGGSFSGYYWSWIRQPPGKGLEWIGEIDHSGSTKYNPSLKSRVTISVDTSKNQFSLKLSSVTAADTAVYYCARVGVVVGRPGYSAFDIWGQGTMVTVSS
VL: DIQMTQSPSSVSASVGDRVTITCRASQGISSWLAWYQQKPGKAPKLLIYAASSLQSGVPSRFSGSGSGTDFTLTISSLQPEDFATYYCQQRNSLPLTFGGGTKVEIK
notes: human IgG1
The molecule B5 registered a Kd in assay [1] of 8.21 nM.

B6: Ab27 (antibody, human IgG1, V domains shown)
VH: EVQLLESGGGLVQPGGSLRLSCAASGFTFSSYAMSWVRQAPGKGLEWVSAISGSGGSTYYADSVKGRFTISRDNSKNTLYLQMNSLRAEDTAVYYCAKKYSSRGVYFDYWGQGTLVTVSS
VL: EIVLTQSPATLSLSPGERATLSCRASQSVSSYLAWYQQKPGQAPRLLIYDASNRATGIPARFSGSGSGTDFTLTISSLEPEDFAVYYCQQYNNFPPTFGGGTKVEIK
notes: human IgG1
For B6, the Kd in assay [2] amounted to 6.39 nM; in assay [1] it was 1.33 nM. This molecule also came in with an MFI with mouse TREM2 on cells of 2160 MFI.

B7: Ab75 (antibody, human IgG1, V domains shown)
VH: not shown
VL: EIVLTQSPATLSLSPGERATLSCRASQSVSSYLAWYQQKPGQAPRLLIYDASNRATGIPARFSGSGSGTDFTLTISSLEPEDFAVYYCQQVSNYPFTFGGGTKVEIK
notes: human IgG1
As for B7, the binding result in assay [2] is listed as “no binding”. Besides, the Kd in assay [1] is 5.88 nM. Also, the MFI with mouse TREM2 on cells was found to be 276 MFI.

B8: Ab80 (antibody, human IgG1, V domains shown)
VH: QVQLVQSGAEVKKPGSSVKVSCKASGGTFSSYAISWVRQAPGQGLEWMGGIIPIFGTANYAQKFQGRVTITADESTSTAYMELSSLRSEDTAVYYCARGGGTFWSGSWALYWGQGTLVTVSS
VL: EIVLTQSPATLSLSPGERATLSCRASQSVSSYLAWYQQKPGQAPRLLIYDASNRATGIPARFSGSGSGTDFTLTISSLEPEDFAVYYCQQYVNWPFTFGGGTKVEIK
notes: human IgG1
For the molecule B8, the Kd in assay [2] was 8.85 nM; in assay [1] it was 5.72 nM. Moreover, the MFI with mouse TREM2 on cells is 593 MFI.

B9: Ab61 (antibody, human IgG1, V domains shown)
VH: QVQLVQSGAEVKKPGASVKVSCKASGYTFTSYGIHWVRQAPGQGLEWMGWISAYNGNTNYAQKLQGRVTMTTDTSTSTAYMELRSLRSDDTAVYYCARGGVPRVSYFQHWGQGTLVTVSS
VL: EIVLTQSPATLSLSPGERATLSCRASQSVSSYLAWYQQKPGQAPRLLIYDSSNRATGIPARFSGSGSGTDFTLTISSLEPEDFAVYYCQQAFNRPPTFGGGTKVEIK
notes: human IgG1
Regarding B9, the affinity in assay [1], expressed as Kd, was 4.61 nM. The same molecule showed an MFI with mouse TREM2 on cells of 10500 MFI.

B10: Ab60 (antibody, human IgG1, V domains shown)
VH: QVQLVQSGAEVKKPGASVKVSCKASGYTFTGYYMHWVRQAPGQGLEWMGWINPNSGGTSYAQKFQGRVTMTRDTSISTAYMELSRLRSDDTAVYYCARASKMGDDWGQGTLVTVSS
VL: EIVLTQSPATLSLSPGERATLSCRASQSVSSYLAWYQQKPGQAPRLLIYDASKRATGIPARFSGSGSGTDFTLTISSLEPEDFAVYYCQQRASMPITFGGGTKVEIK
notes: human IgG1
Regarding B10, the Kd in assay [1] turned out to be 5.59 nM. This counts as single-digit nanomolar.

B11: Ab81 (antibody, human IgG1, V domains shown)
VH: QVQLVQSGAEVKKPGSSVKVSCKASGGTFSSYAISWVRQAPGQGLEWMGGIIPIFGTANYAQKFQGRVTITADESTSTAYMELSSLRSEDTAVYYCARDSGNYDYWSGALRYWGQGTLVTVSS
VL: EIVLTQSPATLSLSPGERATLSCRASQSVSSYLAWYQQKPGQAPRLLIYDASNRATGIPARFSGSGSGTDFTLTISSLEPEDFAVYYCQQSSNWPWTFGGGTKVEIK
notes: human IgG1
In the case of B11, the binding result in assay [2] is recorded as “no binding”. This molecule displayed a dissociation constant (Kd) in assay [1] of 10.1 nM. Also, the MFI with mouse TREM2 on cells came out at 400 MFI.

B12: Ab41 (antibody, human IgG1, V domains shown)
VH: EVQLLESGGGLVQPGGSLRLSCAASGFTFSTYAMSWVRQAPGKGLEWVSAISGSGGSTYYADSVKGRFTISRDNSKNTLYLQMNSLRAEDTAVYYCARAMARKSVAFDIWGQGTMVTVSS
VL: EIVLTQSPATLSLSPGERATLSCRASQSVSSYLAWYQQKPGQAPRLLIYDASNRATGIPARFSGSGSGTDFTLTISSLEPEDFTVYYCQQRYALPITFGGGTKVEIK
notes: human IgG1
With B12, the Kd was found to be 8.64 nM in assay [2] and 2.14 nM in assay [1]. In addition, the MFI with mouse TREM2 on cells worked out at 373 MFI.

B13: Ab28 (antibody, human IgG1, V domains shown)
VH: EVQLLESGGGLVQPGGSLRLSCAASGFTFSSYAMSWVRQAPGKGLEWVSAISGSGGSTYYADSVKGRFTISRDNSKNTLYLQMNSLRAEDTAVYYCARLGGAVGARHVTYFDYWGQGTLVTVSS
VL: EIVLTQSPATLSLSPGERATLSCRASQSVSSYLAWYQQKPGQAPRLLIYDASKRATGIPARFSGSGSGTDFTLTISSLEPEDFAVYYCQQRYLRPITFGGGTKVEIK
notes: human IgG1
For the molecule B13, the Kd is 7.45 nM in assay [2] and 0.915 nM in assay [1]. This molecule showed an MFI in the assay with mouse TREM2 on cells of 5250 MFI.

B14: Ab74 (antibody, human IgG1, V domains shown)
VH: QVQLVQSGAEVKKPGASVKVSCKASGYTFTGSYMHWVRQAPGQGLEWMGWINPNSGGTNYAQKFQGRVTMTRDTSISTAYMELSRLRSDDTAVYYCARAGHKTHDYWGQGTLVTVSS
VL: EIVLTQSPATLSLSPGERATLSCRASQSVSSYLAWYQQKPGQAPRLLIYDASNRATGIPARFSGSGSGTDFTLTISSLEPEDFAVYYCQQRSTFPITFGGGTKVEIK
notes: human IgG1
B14: the equilibrium dissociation constant (Kd) in assay [2] came to 4.91 nM; in assay [1], 9.43 nM. The molecule also came in with an MFI in the assay with mouse TREM2 on cells of 1360 MFI.

B15: Ab79 (antibody, human IgG1, V domains shown)
VH: EVQLVESGGGLVQPGGSLRLSCAASGFTFSSYSMNWVRQAPGKGLEWVSYISGSSSTIYYADSVKGRFTISRDNAKNSLYLQMNSLRAEDTAVYYCARGGRRHYGGMDVWGQGTTVTVSS
VL: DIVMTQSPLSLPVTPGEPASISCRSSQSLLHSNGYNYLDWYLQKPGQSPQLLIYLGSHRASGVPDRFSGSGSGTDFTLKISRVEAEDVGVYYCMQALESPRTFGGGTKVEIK
notes: human IgG1
Consider B15, for which, in assay [2], the binding result is given as “no binding”. Also, the Kd in assay [1] was 10.7 nM. In the assay with mouse TREM2 on cells, the MFI was determined as 738 MFI.

B16: Ab37 (antibody, human IgG1, V domains shown)
VH: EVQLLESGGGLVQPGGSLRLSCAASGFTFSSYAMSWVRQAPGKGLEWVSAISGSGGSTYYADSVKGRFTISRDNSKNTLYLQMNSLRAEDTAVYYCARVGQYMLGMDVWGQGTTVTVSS
VL: EIVLTQSPATLSLSPGERATLSCRASQSVSSYLAWYQQKPGQAPRLLIYDASNRATGIPARFSGSGSGTDFTLTISSLEPEDFAVYYCQQRAFLFTFGGGTKVEIK
notes: human IgG1
For the molecule B16, the binding result in assay [2] is given as “no binding”. Further, in assay [1], the Kd came to 1.58 nM. In addition, the MFI with mouse TREM2 on cells amounted to 1430 MFI.

B17: Ab25 (antibody, human IgG1, V domains shown)
VH: not shown
VL: EIVLTQSPGTLSLSPGERATLSCRASQSVSSSYLAWYQQKPGQAPRLLIYGASSRATGIPDRFSGSGSGTDFTLTISRLEPEDFAVYYCQQDDRSPTFGGGTKVEIK
notes: human IgG1
In the case of B17, the Kd in assay [2] was determined as 5.98 nM. For the same molecule, the MFI with mouse TREM2 on cells was 2500 MFI.

B18: Ab29 (antibody, human IgG1, V domains shown)
VH: QVQLVESGGGVVQPGRSLRLSCAASGFTFSSYGMHWVRQAPGKGLEWVAVISYDGSNKYYADSVKGRFTISRDNSKNTLYLQMNSLRAEDTAVYYCARGQYYGGSGWFDPWGQGTLVTVSS
VL: EIVLTQSPGTLSLSPGERATLSCRASQSVSSSYLAWYQQKPGQAPRLLIYGASSRATGIPDRFSGSGSGTDFTLTISRLEPEDFAVYYCQQPGAVPTFGGGTKVEIK
notes: human IgG1
As to B18, the Kd in assay [2] was found to be 3.27 nM; in assay [1] it was 2.36 nM. In the assay with mouse TREM2 on cells, the MFI was 4520 MFI.

B19: Ab24 (antibody, human IgG1, V domains shown)
VH: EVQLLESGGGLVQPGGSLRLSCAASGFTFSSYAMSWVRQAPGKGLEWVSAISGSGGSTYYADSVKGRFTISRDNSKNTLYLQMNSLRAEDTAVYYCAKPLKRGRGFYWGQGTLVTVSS
VL: DIQMTQSPSSLSASVGDRVTITCRASQSISSYLNWYQQKPGKAPKLLIYAASSLQSGVPSRFSGSGSGTDFTLTISSLQPEDFATYYCQQAFSPPPWTFGGGTKVEIK
notes: human IgG1
For B19, the Kd in assay [2] came to 9.32 nM; in assay [1], 0.479 nM. Moreover, the MFI with mouse TREM2 on cells is 2760 MFI.

B20: Ab85 (antibody, human IgG1, V domains shown)
VH: QVQLVESGGGVVQPGRSLRLSCAASGFTFSSYGMHWVRQAPGKGLEWVAVIWYDGSNKYYADSVKGRFTISRDNSKNTLYLQMNSLRAEDTAVYYCAKDLGGYYGGAAYGMDVWGQGTTVTVSS
VL: DIQLTQSPSSVSASVGDRVTITCRASQDISSWLAWYQQKPGKAPKLLIYAASSLQSGVPSRFSGSGSGTDFTLTISSLQPEDFATYYCQQEVDYPPLTFGGGTKVEIK
notes: human IgG1
As for B20, the Kd in assay [2] turned out to be 2.19 nM; in assay [1], 5.72 nM. Further, in the assay with mouse TREM2 on cells, the MFI is 1120 MFI.

B21: Ab73 (antibody, human IgG1, V domains shown)
VH: EVQLVQSGAEVKKPGESLKISCKGSGYSFTSYWIGWVRQMPGKGLEWMGIIYPGDSDTTYSPSFQGQVTISADKSISTAYLQWSSLKASDTAMYYCARAKMLDDGYAFDIWGQGTMVTVSS
VL: EIVMTQSPATLSVSPGERATLSCRASQSVSSNLAWYQQKPGQAPRLLIYGASTRATGIPARFSGSGSGTEFTLTISSLQSEDFAVYYCQQDDNYPYTFGGGTKVEIK
notes: human IgG1
Take B21: the binding result in assay [2] is on record as “no binding”. Also, in assay [1], the dissociation constant Kd was found to be 4.1 nM. Moreover, the MFI with mouse TREM2 on cells turned out to be 1120 MFI.
